Experimental findings from patent US20240207319A1 (LUDWIG INSTITUTE FOR CANCER RESEARCH, published 2024) are described below.

The target in this test is human PDL1 protein (plate-coated) (human, UniProt Q9NZQ7 19-238, limits assumed). Briefly: titration ELISA, soluble monomeric decoy on plates coated with human PDL1 protein, anti-His tag detection. Here is the method:
FIGS. 9A, 9B, 9C, and 9D are a set of diagrams showing characterization of PD-1 decoy variants and hCD8+ T cells transduced with the PD-1 decoy variants and tEGFR. […] Bound PD1 decoy molecules were detected with an anti-His tag antibody. […] The engineered T cells were co-cultured at a 1:1 ratio with different PD-L1⁺ target tumor cells (100,000 of each cell type) for 48 hours. NA8 and HLA/A2+NY-ESO-1−, SAOS2, and A375 are HLA/A2+ NY-ESO-1+. The supernatants were collected after 48 hours, diluted 1 in 25, and evaluated for the presence of IFNγ using a commercial ELISA kit from Thermo). […] CD8 T cells engineered with PD1 decoy_tEGFR retrovirus were labeled with chromium. The engineered T cells were co-cultured with anti-EGFR Ab and co-cultured with different ratios of PBMCs from the same donor. The negative control is NT (non-transduced) T cells Killing evaluated at 4 hours. As positive control, T cells were treated with HCl.
In general terms: In an ELISA, binding on a coated surface is turned into a signal by an enzyme label.

Chain of human PDL1 protein (plate-coated) (Q9NZQ7 19-238 limits assumed): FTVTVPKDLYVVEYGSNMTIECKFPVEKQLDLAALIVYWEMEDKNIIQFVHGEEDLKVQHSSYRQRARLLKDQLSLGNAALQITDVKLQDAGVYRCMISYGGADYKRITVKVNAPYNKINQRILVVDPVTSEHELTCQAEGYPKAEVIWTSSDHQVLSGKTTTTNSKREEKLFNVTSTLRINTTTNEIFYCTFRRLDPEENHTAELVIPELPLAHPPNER

B1: PD1_4XMUT_M70 (with 6xHis), soluble monomeric PD1 decoy variant (bacterial production) (receptor)
chain: MASDSPDRPWNPPTFSPALLVVTEGDNATFTCSFSNTSESFVLNWYRMSPSNQDDRLAAFPEDRSQPGQDARFRVTQLPNGRDFHMSVVRARRNDSGTYFCGAISLAPKAKIKESLRAELRVTERRALEHHHHHH
Turning to B1, the “fold better binding than the WT PD1 decoy” value is 10 fold.

B2: PD1_6XDM (with 6xHis), soluble monomeric PD1 decoy variant (bacterial production) (receptor)
chain: MASDSPDRPWNPPTFSPALLVVTEGDNATFTCSFSNTSESFVLNWYRMSPSNQVDRLAAFPEDRSQPGQDARFRVTQLPNGRDFHMSVVRARRNDSGTYFCGAISLAPKWKIKESLRAELRVTERRALEHHHHHH
notes: also called 6×DM; variant 6×DM
Take B2: the “fold better binding than the WT PD1 decoy” value is about 7.5 fold.
